These results are taken from patent US20010029022A1.

For one assay, the target named is CDK2 kinase complex (cyclin not given) (UniProt P24941). Kind of assay: cell-based or functional assay.
For the substance “GST-16E7 (16-38) (from UniProt P08515 1-218; P03129 16-38)”, the induced kinase activity, percent of that by full length E7 was 53%.

With “GST-HPV16 E7 ?22-26 (from UniProt P03129 1-21; P03129 27-98)”, the % Control Activation of CDK2 came out at 85%.

The substance “GST-16E7(1-27) (from UniProt P03129 1-27)” registered a CDK2 activation, percent of that of full length E7 (one experiment) of 28.6% and a CDK2 activation, percent of that of full length E7 (repeat experiment) of 52%.

“GST-HPV16 E7 ?24, 26; ?31, 32; ?91 (from UniProt P03129 1-98)” registered a % Control Activation of CDK2, Exp. 2 of 70.6%.

Substance “GST-HPV16 E7 M12→L12 (from UniProt P03129 1-98)” had a % Control Activation of CDK2, Exp. 1 of 96.7%.

“GST-HPV16 E7 ?24, 26; ?31, 32 (from UniProt P03129 1-98)”: the % Control Activation of CDK2, Exp. 1 was 88.2% and the % Control Activation of CDK2, Exp. 2 is 95.6%.

“GST-HPV16 E7 ?9-13, ?A34-37 (from UniProt P03129 1-8; P03129 14-33; P03129 38-98)” gave a % Control Activation of CDK2 of 72%.

As for “GST-16E7(1-69) (from UniProt P03129 1-69)”, the relative kinase activity compared to activity in the presence of full length E7 came out at 82.5%.

With “GST-HPV16 E7 ?34-37 (from UniProt P03129 1-33; P03129 38-98)”, the % Control Activation of CDK2 is 80%.

Turning to “GST-HPV16 E7 ?13-15 (from UniProt P03129 1-12; P03129 16-98)”, the % Control Activation of CDK2 was 76%.

Turning to “GST-HPV16 E7 S31, S32→G31, G32 (from UniProt P03129 1-98)”, the % Control Activation of CDK2, Exp. 1 was 77.1%.

The substance “GST-HPV16 E7 ?31-37 (from UniProt P03129 1-30; P03129 38-98)” registered a % Control Activation of CDK2 of 80%.

In turn, “GST-HPV16 E7 C24, E26→S24, D26 (from UniProt P03129 1-98)” came in with a % Control Activation of CDK2, Exp. 1 of 86.7% and a % Control Activation of CDK2, Exp. 2 of 81.3%.

The substance “GST-HPV16 E7 ?12; ?24, 26; ?31, 32 (from UniProt P03129 1-98)” showed a % Control Activation of CDK2, Exp. 2 of 83.1%.

Regarding “GST-16E7(1-87) (from UniProt P03129 1-87)”, the relative kinase activity compared to activity in the presence of full length E7 turned out to be 76.7%.

Turning to “GST-HPV16 E7 C91→W91 (from UniProt P03129 1-98)”, the % Control Activation of CDK2, Exp. 1 is 81.7% and the % Control Activation of CDK2, Exp. 2 worked out at 78.7%.

“GST-16E7(1-15) (from UniProt P03129 1-15)” showed a relative kinase activity compared to full length E7 of 15%.

“GST-HPV16 E7 ?24, 26; ?91 (from UniProt P03129 1-98)”: the % Control Activation of CDK2, Exp. 1 was found to be 69.4% and the % Control Activation of CDK2, Exp. 2 turned out to be 86.4%.

“GST-E7 (20-48) (from UniProt P03129 20-48)” gave an induced kinase activity, percent of that by full length E7 of 33%.

Consider “GST-HPV16 E7 ?22-26, ?31-37 (from UniProt P03129 1-21; P03129 27-30; P03129 38-98)”, for which the % Control Activation of CDK2 was 72%.

In the case of “GST-16E7(1-48) (from UniProt P03129 1-48)”, the relative kinase activity compared to activity in the presence of full length E7 was 73.2%.

“GST-HPV16 E7 ?9-13 (from UniProt P03129 1-8; P03129 14-98)”: the % Control Activation of CDK2 worked out at 90%.

As for “GST-16E7(1-38) (from UniProt P03129 1-38)”, the relative kinase activity compared to activity in the presence of full length E7 was found to be 72%.

The substance “GST-HPV16 E7 ?12; ?24, 26 (from UniProt P03129 1-98)” gave a % Control Activation of CDK2, Exp. 1 of 85.2% and a % Control Activation of CDK2, Exp. 2 of 93.5%.

The next assay concerns the target cyclin A/CDK2 complex (UniProt P20248). As to the kind of experiment: cell-based or functional assay.
As to “GST-HPV16-E7(9-98) (from UniProt P03129 9-98)”, the activation of cyclinA/CDK2, percent of full length E7 is 64%.

Substance “GST-HPV16-E7(16-98) (from UniProt P03129 16-98)” gave an activation of cyclinA/CDK2, percent of full length E7 of 53%.

As to “GST-HPV16-E7(39-98) (from UniProt P03129 39-98)”, the activation of cyclinA/CDK2, percent of full length E7 (repeat experiment) is 18% and the activation of cyclinA/CDK2, percent of full length GST-HPV 16 E7 is 28.6%.
